Here are results for 2 molecules from patent US20100077492A1 (UNIVERSITY OF MASSACHUSETTS, published 2010).

The chains are these.
B2: ^32P-labelled XPG-HMK (human XPG with a C-terminal heart muscle kinase recognition sequence tag) (enzyme)
chain: MGVQGLWKLLECSGRQVSPEALEGKILAVDISIWLNQALKGVRDRHGNSIENPHLLTLFHRLCKLLFFRIRPIFVFDGDAPLLKKQTLVKRRQRKDLASSDSRKTTEKLLKTFLKRQAIKTAFRSKRDEALPSLTQVRRENDLYVLPPLQEEEKHSSEEEDEKEWQERMNQKQALQEEFFHNPQAIDIESEDFSSLPPEVKHEILTDMKEFTKRRRTLFEAMPEESDDFSQYQLKGLLKKNYLNQHIEHVQKEMNQQHSGHIRRQYEDEGGFLKEVESRRVVSEDTSHYILIKGIQAKTVAEVDSESLPSSSKMHGMSFDVKSSPCEKLKTEKEPDATPPSPRTLLAMQAALLGSSSEEELESENRRQARGRNAPAAVDEGSISPRTLSAIKRALDDDEDVKVCAGDDVQTGGPGAEEMRINSSTENSDEGLKVRDGKGIPFTATLASSSVNSAEEHVASTNEGREPTDSVPKEQMSLVHVGTEAFPISDESMIKDRKDRLPLESAVVRHSDAPGLPNGRELTPASPTCTNSVSKNETHAEVLEQQNELCPYESKFDSSLLSSDDETKCKPNSASEVIGPVSLQETSSIVSVPSEAVDNVENVVSFNAKEHENFLETIQEQQTTESAGQDLISIPKAVEPMEIDSEESESDGSFIEVQSVISDEELQAEFPETSKPPSEQGEEELVGTREGEAPAESESLLRDNSERDDVDGEPQEAEKDAEDSLHEWQDINLEELETLESNLLAQQNSLKAQKQQQERIAATVTGQMFLESQELLRLFGIPYIQAPMEAEAQCAILDLTDQTSGTITDDSDIWLFGARHVYRNFFNKNKFVEYYQYVDFHNQLGLDRNKLINLAYLLGSDYTEGIPTVGCVTAMEILNEFPGHGLEPLLKFSEWWHEAQKNPKIRPNPHDTKVKKKLRTLQLTPGFPNPAVAEAYLKPVVDDSKGSFLWGKPDLDKIREFCQRYFGWNRTKTDESLFPVLKQLDAQQTQLRIDSFFRLAQQEKEDAKRIKSQRLNRAVTCMLRKEKEAAASEIEAVSVAMEKEFELLDKAKGKTQKRGITNTLEESSSLKRKRLSDSKGKNTCGGFLGETCLSESSDGSSSEDAESSSLMNVQRRTAAKEPKTSASDSQNSVKEAPVKNGGATTSSSSDSDDDGGKEKMVLVTARSVFGKKRRKLRRARGRKRKTRRASV
modifications: ^32P-labeled at the heart muscle kinase (HMK) recognition tag RRASV
notes: The tagged form was used only in the far western and slot blot assays, as the labelled probe in solution; also called ^32P-labeled XPG with a heart muscle kinase (HMK) tag

The target in assay [1] is B2. Kind of assay: far western: ^32P-labelled XPG-HMK probe on proteins transferred from SDS-PAGE. Here is the method:
(§1) For “far western” analysis, human PC4 protein (1.5 μg), human Nth1 protein (2.1 μg) and E. coli EndoIII (3 μg) were separated on SDS-PAGE (pre-cast 4-20% gel, BioRad), transferred to a PVDF membrane, and stained with Ponceau S to visualize the proteins on the membrane. The membrane was then blocked with a blocking buffer (25 mM Hepes-KOH (pH 7.7), 25 mM NaCl, 5 mM MgCl₂, 1 mM DTT, 1% nonfat milk and 0.1% NP-40) for 2 hours at 4° C. and probed overnight at 4° C. on a rocker with blocking buffer containing 150 mM KCl and ³²P-labeled XPG with a heart muscle kinase (HMK) tag. The membrane was washed with washing buffer (25 mM Hepes-KOH (pH 7.7), 25 mM NaCl, 150 mM KCl, 5 mM MgCl2, 1 mM DTT, 1% nonfat milk and 0.5% NP-40), and interactions were visualized by both phosphorimager and autoradiography. For slot-blot analysis 1 μg each of PC4, hNth1 and EndoIII were applied to a nitrocellulose membrane, and the membrane was processed as above.
(§2) Since Sub1 evidently functions in a pathway involving Rad2, we tested the possibility of direct interaction between the human PC4 and XPG proteins by “far western” analysis. To test PC4-XPG interaction, ³²P-labeled XPG was used as a probe for PC4 transferred onto a membrane from an SDS-PAGE gel. […]

The target of assay [2] is T1, human PC4 protein (full length wild type) (human, UniProt P53999 1-127).
T1 construct: Full length wild type PC4 expressed in E. coli BL21(DE3) and purified by the methods of Ge et al; It was immobilised on the membrane, denatured after SDS-PAGE in the far western and native in the slot blot
Briefly: far western: ^32P-labelled XPG-HMK probe on PC4 transferred from SDS-PAGE. On the procedure: as §1, §2

B1: E. coli Endo III (enzyme, UniProt P0AB83 1-211, looked up)
chain: MNKAKRLEILTRLRENNPHPTTELNFSSPFELLIAVLLSAQATDVSVNKATAKLYPVANTPAAMLELGVEGVKTYIKTIGLYNSKAENIIKTCRILLEQHNGEVPEDRAALEALPGVGRKTANVVLNTAFGWPTIAVDTHIFRVCNRTQFAPGKNVEQVEEKLLKVVPAEFKVDCHHWLILHGRYTCIARKPRCGSCIIEDLCEYKEKVDI
notes: Negative control, immobilised on the membrane
For the molecule B1, the binding result in assay [1] is listed as “no binding (tested: 3 µg EndoIII on the membrane)”.

Consider B2, for which, in assay [2], the binding result is “binds”.
